How the values were obtained:
[1] = target: rPcrV protein (recombinant Pseudomonas PcrV) (Pseudomonas aeruginosa); assay: SPR on Bio-Rad ProteOn XPR36; antibody captured on GLC chip with anti-human IgG, rPcrV injected at multiple concentrations
[2] = target: rPcrV protein (recombinant Pseudomonas PcrV) (Pseudomonas aeruginosa); assay: SPR on Bio-Rad ProteOn XPR36; antibody captured on GLC chip with anti-human IgG, rPcrV injected at multiple concentrations [table]
[3] = target: rPcrV protein (recombinant Pseudomonas PcrV) (Pseudomonas aeruginosa); assay: Bio-Rad ProteOn XPR36; antibody captured by anti-human IgG on GLC chip, rPcrV injected

Kd [1] [nM]	koff [1] [s⁻¹]	kon [1] [M⁻¹ s⁻¹]	Kd [2] [nM]	koff [2] [s⁻¹]	kon [2] [M⁻¹ s⁻¹]	fold increase in Kd over V2L2-GL [3] [fold]	Binder
0.143	0.000116	808000	0.143	0.000116	808000		V2L2-germlined mAb (V2L2-GL) (antibody, V domains shown) VH: EVQLLESGGGLVQPGGSLRLSCAASGFTFSSYAMNWVRQAPGKGLEWVSAITISGITAYYTDSVKGRFTISRDNSKNTLYLQMNSLRAEDTAVYYCAKEEFLPGTHYYYGMDVWGQGTTVTVSS VL: AIQMTQSPSSLSASVGDRVTITCRASQGIRNDLGWYQQKPGKAPKLVIYSASTLQSGVPSRFSGSGSGTDFTLSISSLQPDDFATYYCLQDYNYPWTFGQGTKVEIK
0.0456	4.03e-05	884000	0.046	4.03e-05	884000	2 to 3	V2L2-MD (germlined lead optimized V2L2) (antibody, V domains shown) VH: EVQLLESGGGLVQPGGSLRLSCAASGFTFSSYAMNWVRQAPGKGLEWVSAITMSGITAYYTDDVKGRFTISRDNSKNTLYLQMNSLRAEDTAVYYCAKEEFLPGTHYYYGMDVWGQGTTVTVSS VL: AIQMTQSPSSLSASVGDRVTITCRASQGIRNDLGWYQQKPGKAPKLLIYSASTLQSGVPSRFSGSGSGTDFTLTISSLQPEDFATYYCLQDYNYPWTFGQGTKVEIK

Reference: patent US20150284450A1, “COMBINATION THERAPIES USING ANTI-PSEUDOMONAS PSL AND PCRV BINDING MOLECULES” (priority 2012, published 2015)
